Test results published in patent publication US8349318B2, “Use of specifically engineered enzymes to enhance the efficacy of prodrugs” (The Board of Trustees of the University of Illinois, priority 2008, dated 2013).

Key:
[1] = Kinetic characterization of dCK variants, substrate L-dT; type: biochemical; conditions: for rate of phosphorylation, L-dT: Table 8, nucleoside 200 mM, ATP 1 μM [sic]; for kobs L-dT: nucleoside concentration of 200 μM, ATP 1 mM; for Rel kobs (L-dT): relative to WT
[2] = Kinetic analysis of dCK variants, substrate L-dU; type: biochemical; conditions: Table 8; nucleoside 200 mM, ATP 1 μM [sic]
Description: In a separate experiment, those mutant dCKs were analyzed in the presence of a nucleoside substrate at a concentration of 200 mM, and a phosphoryl donor ATP at a concentration of 1 μM.

[3] = Kinetic characterization of dCK variants, substrate D-dA; type: biochemical; conditions: for kobs D-dA: nucleoside concentration of 200 μM, ATP 1 mM; for Rel kobs (D-dA): relative to WT
[4] = Kinetic characterization of dCK variants, substrate D-dC; type: biochemical; conditions: for rate of phosphorylation, D-dC: Table 8, nucleoside 200 mM, ATP 1 μM [sic]; for kobs D-dC: nucleoside concentration of 200 μM, ATP 1 mM; for Rel kobs (D-dC): relative to WT
[5] = Kinetic characterization of dCK variants, substrate D-dT; type: biochemical; conditions: for rate of phosphorylation, D-dT: Table 8, nucleoside 200 mM, ATP 1 μM [sic]; for kobs D-dT: nucleoside concentration of 200 μM, ATP 1 mM; for Rel kobs (D-dT): relative to WT
[6] = Kinetic characterization of dCK variants, substrate AraC; type: biochemical; conditions: for kobs AraC: nucleoside concentration of 200 μM, ATP 1 mM; for Rel kobs (AraC): relative to WT
[7] = Kinetic characterization of dCK variants, substrate gemcitabine; type: biochemical; conditions: for rate of phosphorylation, Gem: Table 8, nucleoside 200 mM, ATP 1 μM [sic]; for kobs Gem: nucleoside concentration of 200 μM, ATP 1 mM; for Rel kobs (Gem): relative to WT
[8] = Kinetic characterization of dCK variants, substrate D-dG; type: biochemical; conditions: for rate of phosphorylation, D-dG: Table 8, nucleoside 200 mM, ATP 1 μM [sic]; for kobs D-dG: nucleoside concentration of 200 μM, ATP 1 mM; for Rel kobs (D-dG): relative to WT
HL60 cell line = assay: Apoptosis assay (Annexin V and PI staining) in CD33 positive HL60 cells; type: cell-based, human; conditions: HL60, AraC at 1 μM, after 96 hours
Description: The HuM195 antibody will only bind and internalize to cells expressing CD33. Thus, the HL60 cell line (derived from AML cells) and the NB4 cell line, which are CD33 positive, were used to test the activity of the HuM195-dCK system in live cells. The cells were treated with AraC, the HuM195-dCK conjugate, or the combination of HuM195-dCK and the AraC. Annexin V and propidium iodide (PI) staining was used to identify apoptotic cells. […] The combination of AraC with the conjugate results in 20% more killing than AraC alone.

NB4 cell line = assay: Apoptosis assay in CD33 positive NB4 cells; type: cell-based; conditions: NB4, AraC 250 nM, after 96 hours
Description: The NB4 cells were also treated with AraC, the HuM195-dCK conjugate, or the combination of HuM195-dCK and the AraC, and an apoptosis assay was performed as above. The AraC dose used, however, was decreased from 1000 nM to 250 nM. The results were similar to those observed in the HL60 cells (FIG. 8). The conjugate with AraC (right bars) achieve ˜65% cell killing after 96 hours, whereas AraC alone was below 40%.

parent 293 cells = assay: Proliferation of parental 293 cells treated with nucleoside analogs; type: cell-based, human
Description: Next, whether the dCK-S74E/R104M/D133A variant could inhibit cell growth in the presence of NAs including BVdU was tested. Human 293 cells were stably transfected with a recombinant expression construct encoding the dCK-S74E/R104M/D133A protein. The proliferative capacity of the stably transfected cell line was compared to the parental 293 cells after treating the cells with several nucleoside analogs such as AraC, gemcitabine, and BVdU. Since some of the nucleosides were first dissolved in the solvent DMSO, equal amounts of DMSO were used as control.

Wild Type dCK [9] = target: T1, Wild Type dCK (Homo sapiens, UniProt P27707); assay: Steady-state kinetic (colorimetric, enzyme-coupled) assay of nucleoside phosphorylation by wild type dCK; conditions: for Km / kcat: Wild Type dCK, 0.4 μM dCK, 1 mM ATP.Mg, 37° C.
A100V/R104M/D133A-dCK = target: T2, A100V/R104M/D133A-dCK (Homo sapiens, UniProt P27707, A100V/D133A/R104M); assay: Steady-state kinetic assay of nucleoside phosphorylation by A100V/R104M/D133A-dCK; type: biochemical
T2 construct: His-tag (N); made in house

Wild Type dCK [10] = target: T1, Wild Type dCK; parameters: The electron density for dCK extended to the last residue (Leu260), while the N-terminus (residues 1 to 19) was flexible; His-tag (N); made in house; host or cells: E. coli BL21(DE3); conditions: Lotfi et al., 1999; Mansson et al., 2003; cited from earlier work

| Molecule | rate of phosphorylation, L-dT [1] [s⁻¹] | kobs L-dT [1] [s⁻¹] | rate of phosphorylation, L-dU [2] [s⁻¹] | kobs D-dA [3] [s⁻¹] | rate of phosphorylation, D-dC [4] [s⁻¹] | kobs D-dC [4] [s⁻¹] | rate of phosphorylation, D-dT [5] [s⁻¹] | kobs D-dT [5] [s⁻¹] | kobs AraC [6] [s⁻¹] | rate of phosphorylation, Gem [7] [s⁻¹] | kobs Gem [7] [s⁻¹] | rate of phosphorylation, D-dG [8] [s⁻¹] | kobs D-dG [8] [s⁻¹] | further results |
| --- | --- | --- | --- | --- | --- | --- | --- | --- | --- | --- | --- | --- | --- | --- |
| R104L/D133A: modified human dCK, leucine at position 104, alanine at position 133, SEQ ID NO:10 | 1.07 | 1.07 ± 0.09 | 2.56 | 3.45 ± 0.16 | 0.27 | 0.27 ± 0.09 | 2.86 | 2.86 ± 0.09 | 0.64 ± 0.06 | 2.04 | 2.04 ± 0.03 | 0.3 | 0.30 ± 0.01 | Rel kobs (L-dT) [1]: 63; Rel kobs (D-dA) [3]: 2.9; Rel kobs (D-dC) [4]: 9; Km [5]: < 25 µM; Rel kobs (D-dT) [5]: 358; Rel kobs (AraC) [6]: 0.35; Rel kobs (Gem) [7]: 5.20; Rel kobs (D-dG) [8]: 0.32 |
| R104V/D133A: human dCK mutant, valine at position 104, D133A | 0.05 | <0.005 |  | <0.005 | 0.03 | <0.005 | 0.04 | <0.005 | <0.005 |  | <0.005 | 0.03 | <0.005 |  |
| Nc1ccn([C@@H]2O[C@H](CO)[C@@H](O)[C@@H]2O)c(=O)n1 [Ara-C, 1-β-D-arabinofuranosylcytosine] |  |  |  |  |  |  |  |  |  |  |  |  |  | cell death (apoptotic cells) (HL60 cell line): ~50%; cell killing (NB4 cell line): below 40%; inhibition of growth (parent 293 cells; 1 μM): no inhibitory effect |
| Nc1ccn([C@@H]2O[C@H](CO)[C@@H](O)C2(F)F)c(=O)n1 [gemcitabine, 2′,2′-difluorodeoxycytidine] |  |  |  |  |  |  |  |  |  |  |  |  |  | Km (Wild Type dCK [9]): 22 µM; kcat (Wild Type dCK [9]): 0.37 s⁻¹; higher enzymatic efficiency compared to dC (Wild Type dCK [9]; wild type dCK): ~4 fold; increase in kcat compared to dC (Wild Type dCK [9]; wild type dCK): 10 fold; Km (A100V/R104M/D133A-dCK): 50 µM; kcat (A100V/R104M/D133A-dCK): 3.52 s⁻¹; inhibition at 1 µM (parent 293 cells; Homo sapiens, HEK293, 1 μM, read-out: inhibition of growth): 75% |
| R104F/D133A: human dCK mutant, phenylalanine at position 104, D133A | 0.02 | <0.005 |  | <0.005 | 0.02 | <0.005 | 0.02 | <0.005 | <0.005 |  | <0.005 | 0.02 | <0.005 |  |
| R104K/D133A: human dCK mutant, lysine at position 104, D133A |  | <0.005 |  | <0.005 |  | <0.005 |  | <0.005 | <0.005 |  | <0.005 |  | <0.005 |  |
| R104Q: human dCK variant of Table 8 with Q at position 104 and unchanged D133 | 0.06 |  | 0.06 |  | 0.07 |  | 0.05 |  |  | 0.06 |  | 0.06 |  |  |
| R104Q/D133A: modified human dCK, glutamine at position 104, alanine at position 133, SEQ ID NO:8 | 0.15 | 0.15 ± 0.02 | 0.14 | 0.18 ± 0.04 | 0.08 | 0.08 ± 0.01 | 0.1 | 0.10 ± 0.06 | 0.18 ± 0.01 | 0.17 | 0.17 ± 0.04 | 0.06 | 0.06 ± 0.01 | Rel kobs (L-dT) [1]: 9; Rel kobs (D-dA) [3]: 0.15; Rel kobs (D-dC) [4]: 2.7; Rel kobs (D-dT) [5]: 12.5; Rel kobs (AraC) [6]: 0.60; Rel kobs (Gem) [7]: 0.43; Rel kobs (D-dG) [8]: 0.06 |
| Nc1nc2c(ncn2[C@H]2C[C@H](O)[C@@H](CO)O2)c(=O)[nH]1 [D-dG, deoxyguanosine] |  |  |  |  |  |  |  |  |  |  |  |  |  | kcat, Wild-type (Wild Type dCK [9]; Table 9): ~2.5 s⁻¹ |
| Nc1nc(Cl)nc2c1ncn2[C@@H]1O[C@H](CO)[C@@H](O)[C@@H]1F [clofarabine, 2-chloro-2′-arabino-fluoro-2′-deoxyadenosine] |  |  |  |  |  |  |  |  |  |  |  |  |  | efficiency as substrate for dCK relative to cladribine (Wild Type dCK [10]): ~3 fold |
| R104I/D133A: modified human dCK, isoleucine at position 104, alanine at position 133, SEQ ID NO:12 | 0.19 | 0.19 ± 0.02 | 0.4 | 0.21 ± 0.01 | 0.06 | 0.06 ± 0.01 | 0.4 | 0.40 ± 0.01 | 0.07 ± 0.01 | 0.21 | 0.21 ± 0.08 | 0.08 | 0.08 ± 0.01 | Rel kobs (L-dT) [1]: 10; Rel kobs (D-dA) [3]: 0.18; Rel kobs (D-dC) [4]: 2; Rel kobs (D-dT) [5]: 50; Rel kobs (AraC) [6]: 0.25; Rel kobs (Gem) [7]: 0.53; Rel kobs (D-dG) [8]: 0.08 |
| Nc1ccn([C@H]2CC[C@@H](CO)O2)c(=O)n1 [ddC, 2′,3′-dideoxycytidine] |  |  |  |  |  |  |  |  |  |  |  |  |  | Km (Wild Type dCK [9]): 407 µM; kcat (Wild Type dCK [9]): 0.18 s⁻¹ |
